Measurements published in paper PMC9284427 (The Journal of Cell Biology, 2022).
Positions count from the first letter of the chain named. Numbers in names are those of the source. Where two headings read alike, the source gives them in different places. Blank lines part the entries; values can stand above or below the binder they belong to.

T1: full-length RILP (human, UniProt Q96NA2-1 1-401)
T1 sequence (looked up): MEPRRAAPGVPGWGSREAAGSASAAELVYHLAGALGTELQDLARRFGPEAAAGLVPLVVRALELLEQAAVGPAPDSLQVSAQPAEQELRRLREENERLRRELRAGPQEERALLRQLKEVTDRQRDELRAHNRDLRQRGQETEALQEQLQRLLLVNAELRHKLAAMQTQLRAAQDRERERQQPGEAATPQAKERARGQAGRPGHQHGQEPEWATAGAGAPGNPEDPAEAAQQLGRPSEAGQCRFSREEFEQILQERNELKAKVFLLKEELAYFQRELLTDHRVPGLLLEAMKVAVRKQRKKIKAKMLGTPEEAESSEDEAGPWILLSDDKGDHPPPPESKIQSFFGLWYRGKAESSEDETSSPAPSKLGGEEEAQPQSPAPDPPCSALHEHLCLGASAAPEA

T2: mouse JIP3[186-505] (mouse, UniProt Q9ESN9-5 186-505)
T2 sequence (looked up): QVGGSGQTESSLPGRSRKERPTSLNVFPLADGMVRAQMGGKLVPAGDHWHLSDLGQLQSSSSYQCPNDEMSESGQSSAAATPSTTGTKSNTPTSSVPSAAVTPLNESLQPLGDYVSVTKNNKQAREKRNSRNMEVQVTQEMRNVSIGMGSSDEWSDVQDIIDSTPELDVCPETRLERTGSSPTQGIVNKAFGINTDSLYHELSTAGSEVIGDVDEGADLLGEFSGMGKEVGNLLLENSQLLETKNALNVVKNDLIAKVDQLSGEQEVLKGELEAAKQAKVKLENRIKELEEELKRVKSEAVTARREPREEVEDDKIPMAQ

B1: JIP3[1-108] (domain or fragment, human, UniProt Q9UPT6-1 1-108, looked up)
chain: MMEIQMDEGGGVVVYQDDYCSGSVMSERVSGLAGSIYREFERLIHCYDEEVVKELMPLVVNVLENLDSVLSENQEHEVELELLREDNEQLLTQYEREKALRRQAEEKF
B2: MBP-tagged JIP3[1-108] (domain or fragment, human, UniProt Q9UPT6-1 1-108, looked up)
chain: B1 chain
B3: JIP3[1-108] V60Q (domain or fragment, human, UniProt Q9UPT6-1 1-108, looked up)
chain: B1 chain with V60Q
B4: GST::DLIC1[388-523] (domain or fragment, human, UniProt Q9Y6G9 388-523, looked up)
chain: PTAAGRPVDASPRVPGGSPRTPNRSVSSNVASVSPIPAGSKKIDPNMKAGATSEGVLANFFNSLLSKKTGSPGGPGVSGGSPAGGAGGGSSGLPPSTKKSGQKPVLDVHAELDRITRKPVTVSPTTPTSPTEGEAS
B5: RILP[1-106] (domain or fragment, human, UniProt Q96NA2-1 1-106, looked up)
chain: MEPRRAAPGVPGWGSREAAGSASAAELVYHLAGALGTELQDLARRFGPEAAAGLVPLVVRALELLEQAAVGPAPDSLQVSAQPAEQELRRLREENERLRRELRAGP
B6: GST-tagged KLC1[185-501] (domain or fragment, human, UniProt Q07866-1 185-501, looked up)
chain: DDPGQGIQQQHSSAAAAAQQGGYEIPARLRTLHNLVIQYASQGRYEVAVPLCKQALEDLEKTSGHDHPDVATMLNILALVYRDQNKYKDAANLLNDALAIREKTLGKDHPAVAATLNNLAVLYGKRGKYKEAEPLCKRALEIREKVLGKDHPDVAKQLNNLALLCQNQGKYEEVEYYYQRALEIYQTKLGPDDPNVAKTKNNLASCYLKQGKFKQAETLYKEILTRAHEREFGSVDDENKPIWMHAEEREECKGKQKDGTSFGEYGGWYKACKVDSPTVTTTLKNLGALYRRQGKFEAAETLEEAAMRSRKQGLDNV
B7: MBP::UNC-16[1-120] (domain or fragment, C. elegans, UniProt P34609-1 1-120, looked up)
chain: MACNLSPVNEMADSITSSTPSEIVYGGPGSPDEHRTMSDKVQTMASAIYRELETMIKVHGEDGVKTLMPLVVNVLEALDLAYLERDEQTAELEMLKEDNEQLQTQYEREKALRKQTEQKY
B8: MBP::UNC-16[1-120] V72Q (domain or fragment, C. elegans, UniProt P34609-1 1-120, looked up)
chain: B7 chain with V72Q
B9: GST::DLI-1[369-442] (domain or fragment, C. elegans, UniProt G5ED34 369-442, looked up)
chain: TTAAPKPRTMQEEPTDKDSPLANFFSNLLNKDKPSKVSSPSTVSQPMDAAATQAQLDRLLKSAQSPKPQPRDSD
B10: JIP4[1-103] (domain or fragment, human, UniProt O60271-1 1-103, looked up)
chain: MELEDGVVYQEEPGGSGAVMSERVSGLAGSIYREFERLIGRYDEEVVKELMPLVVAVLENLDSVFAQDQEHQVELELLRDDNEQLITQYEREKALRKHAEEKF

Assays:
MBP-tagged JIP3[1-108] = molecular target: B2; test: pull-down
RILP[1-106] = molecular target: B5; test: SEC
AUC = molecular target: the molecule itself; test: AUC
DLIC1[388-523] = DLIC1[388-523] (human, UniProt Q9Y6G9 388-523); test: ITC
GST::KIF5C[807-956] [1] = molecular target: T3, GST::KIF5C[807-956] (mouse, UniProt P28738 807-956); test: pull-down
T3 sequence (P28738 807-956): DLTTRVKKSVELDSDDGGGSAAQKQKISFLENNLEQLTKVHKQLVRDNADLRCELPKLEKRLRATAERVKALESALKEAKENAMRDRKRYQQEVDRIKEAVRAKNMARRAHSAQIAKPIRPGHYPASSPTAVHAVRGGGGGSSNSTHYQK
GST::KIF5C[807-956] [2] = molecular target: T3, GST::KIF5C[807-956]; test: pull-down; remark: listed apart in the source
full-length RILP = molecular target: T1, full-length RILP; test: pull-down
GST::DLIC1[388-523] = molecular target: B4; test: pull-down
mouse JIP3[186-505] = molecular target: T2, mouse JIP3[186-505]; test: pull-down
UNC-116[675-815] = UNC-116[675-815] (C. elegans, UniProt P34540 675-815); test: pull-down
UNC-116[675-815], sequence (P34540 675-815): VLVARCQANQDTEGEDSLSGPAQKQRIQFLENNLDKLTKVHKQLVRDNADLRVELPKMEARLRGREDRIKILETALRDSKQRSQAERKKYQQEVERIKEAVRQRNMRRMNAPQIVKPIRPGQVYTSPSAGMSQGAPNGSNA
MBP::UNC-16[1-120] = molecular target: B7; test: pull-down

binding result (MBP-tagged JIP3[1-108]): binds
Binder: NMKAGATSEGVLANFFNSLLSKKTGS (peptide, UniProt Q9Y6G9 433-458, looked up) [DLIC-C helix 1 peptide (residues 433-458)]

binding result (RILP[1-106]): binds
Binder: SEGVLANFFNSLLSKK (domain or fragment, human) [DLIC1[440-455]]

Binder: B1
stoichiometry N (AUC): 2
Kd (DLIC1[388-523]): ~1 µM
stoichiometry N (DLIC1[388-523]): 2 DLIC1-C molecules per RH1 dimer
binding result (GST::KIF5C[807-956] [1]): binds

Binder: B2
binding result (GST::KIF5C[807-956] [2]): binds

Binder: B3
stoichiometry N (AUC): 2
binding result (GST::KIF5C[807-956] [1]): binds

Binder: B4
binding result (full-length RILP): binds

Binder: B5
binding result (GST::DLIC1[388-523]): binds

Binder: B6
binding result (mouse JIP3[186-505]): binds

Binder: B7
binding result (UNC-116[675-815]): binds

Binder: B8
binding result (UNC-116[675-815]): binds

Binder: B9
binding result (MBP::UNC-16[1-120]): binds

Binder: B10
stoichiometry N (AUC): 2
Kd (DLIC1[388-523]): ~4 µM
stoichiometry N (DLIC1[388-523]): 2 DLIC1-C molecules per RH1 dimer
